Measurements published in article PMC12126490, “The HP1 box of KAP1 organizes HP1α for silencing of endogenous retroviral elements in embryonic stem cells” (Nature Communications, 2025).

What was measured:
FLAG-tagged HP1α = assay: pull-down with Strep-tagged KAP1, Western blot; assay type: binding; conditions: Strep-tagged full-length KAP1 mutant, HCT116 cells; 3 biological replicates
Protocol: For all AP experiments, HCT116 cells were seeded in 10 cm plates (~4 million cells per dish) and transfected with Strep- and Flag-tagged plasmids one-day after seeding cells. Two days post-transfection, cells were collected in PBS and lysed with passive lysis buffer (PLB: 50 mM Tris-HCl pH 7.5, 150 mM NaCl, 1 mM DTT, 1.0% NP-40, 1.5 mM MgCl2, 5% v/v glycerol, and 1X complete, Mini EDTA-free, EASYpack Protease Inhibitor [Roche, Cat# 4693159001]) by resuspending cells in PLB, vortexing briefly, nutating for 15 min at 4 °C, and centrifuging the lysate (10,000 × g, 10 min, 4 °C). Strep-Tactin superflow resin (IBA Life Sciences, Cat# 2-1208-010), was equilibrated by centrifuging beads (2000 RPM, 2 min, 4 °C), removing storage buffer, and washing three times with PLB with nutation for 5 min at 4 °C. Beads were volumed back to their original volume, and 40 µL beads were used per AP and bound for 2 h. Beads were then washed with AP Wash Buffer (50 mM Tris-HCl pH 7.5, 250 mM NaCl, 1 mM DTT, 0.2% NP-40, 1.5 mM MgCl2, and 5% v/v glycerol), and eluted with Strep-tag Elution Buffer containing D-Desthiobiotin (IBA Life Sciences, Cat# 2-1000-025). […]
Tryptophan fluorescence data are presented as average of three independent measurements ±SD. […]

[1] = system: endogenous retroelements in KAP1 cKO ESCs; assay: ATAC-seq chromatin accessibility; assay type: cell-based, mouse; conditions: exogenous expression in KAP1 cKO ESCs, 2 μg/mL doxycycline, 2 μM 4-OHT 48 h
Protocol: ESCs were maintained under standard conditions on gelatin-coated plates at 37 °C at 5% CO2 in Knockout DMEM (Thermo Fisher) supplemented with NEAA, GlutaMAX, penicillin/streptomycin (Thermo Fisher), 15% ESC-screened fetal bovine serum (Hyclone), 0.1 mM 2-mercaptoethanol (Fisher), and leukemia-inhibitory factor (LIF). Generation of KAP1 cKO ESCs has been described previously. The piggybac transposon system was used to stably integrate transgenic Flag-tagged WT or V488E mutant KAP1 under control of an rtTA promoter (Systems Biosciences, PB-TRE-EGFP-EF1a-rtTA) into the inducible KAP1 cKO ESCs. Exogenous expression of WT or V488E mutant KAP1 was induced with 2 μg/mL doxycycline for 48 h and maintained in doxycycline prior to endogenous KAP1 deletion. KAP1 deletion was induced with 2 μM 4-OHT (Sigma) treatment for 48 h. […]
The modified ATAC-sequencing protocol Omni-ATAC was performed. […] Number of further PCR cycles required was determined using KAPA Library Quantification Kit (KK4854). […]
Quality of datasets was assessed using the FastQC tool. Raw reads were adapter and quality trimmed using Trimgalore. Trimmed reads were aligned to the mouse reference genome (mm10) with Bowtie2. Multimapping reads were randomly assigned. Optical duplicate reads were filtered using Picard (https://broadinstitute.github.io/picard/). Reads which mapped to the mitochondrial genome were removed with Samtools. […]

B1: V488E KAP1: V488E mutant of KAP1, impaired in binding to HP1 (protein)
chain: MAASAAAASAAAASAASGSPGPGEGSAGGEKRSTAPSAAASASASAAASSPAGGGAEALELLEHCGVCRERLRPEREPRLLPCLHSACSACLGPAAPAAANSSGDGGAAGDGTVVDCPVCKQQCFSKDIVENYFMRDSGSKAATDAQDANQCCTSCEDNAPATSYCVECSEPLCETCVEAHQRVKYTKDHTVRSTGPAKSRDGERTVYCNVHKHEPLVLFCESCDTLTCRDCQLNAHKDHQYQFLEDAVRNQRKLLASLVKRLGDKHATLQKSTKEVRSSIRQVSDVQKRVQVDVKMAILQIMKELNKRGRVLVNDAQKVTEGQQERLERQHWTMTKIQKHQEHILRFASWALESDNNTALLLSKKLIYFQLHRALKMIVDPVEPHGEMKFQWDLNAWTKSAEAFGKIVAERPGTNSTGPAPMAPPRAPGPLSKQGSGSSQPMEVQEGYGFGSGDDPYSSAEPHVSGVKRSRSGEGEVSGLMRKVPRESLERLDLDLTADSQPPVFKVFPGSTTEDYNLIVIERGAAAAATGQPGTAPAGTPGAPPLAGMAIVKEEETEAAIGAPPTATEGPETKPVLMALAEGPGAEGPRLASPSGSTSSGLEVVAPEGTSAPGGGPGTLDDSATICRVCQKPGDLVMCNQCEFCFHLDCHLPALQDVPGEEWSCSLCHVLPDLKEEDGSLSLDGADSTGVVAKLSPANQRKCERVLLALFCHEPCRPLHQLATDSTFSLDQPGGTLDLTLIRARLQEKLSPPYSSPQEFAQDVGRMFKQFNKLTEDKADVQSIIGLQRFFETRMNEAFGDTKFSAVLVEPPPMSLPGAGLSSQELSGGPGDGP
modifications: left off: Strep, end not stated, kept
**Q.** What does the source list for B1?
**A.** pull-down of FLAG-tagged HP1α (FLAG-tagged HP1α): eliminated binding of exogenously expressed FLAG-tagged HP1α; restoration of closed chromatin at IAPEz, MERVK10C and ETn [1]: could not restore a closed chromatin state to the same extent observed with expression of WT KAP1
